Assay results: the DeepSol protein solubility set

assay: soluble on expression in E. coli; label from the status in PepcDB or PDB records

Row | Sequence | soluble on expression in E. coli
1 | MGSDKIHHHHHHMATSTTSTPHDAVFKQFLCHPDTARDFLEIHLPSTLRQICNLNTLRLESGSFIEEDLRPHYSDILWSLETSEGEGYIYVVIEHQSTPDAHMAFRLMRYAMAAMQRHLEAGHKTLPLVVPMLFYHGNRSPYPFSLCWLDEFADPVMARKLYATAFPLVDITVVPDDEIMRHRRVALLELIQKHIRQRDLMGLVEQLVALLVKGYANDTQLQSLFNYMMHTGDAARFNTFIRQVAMRIPQHKEKIMTIADRLRQEGHRNGLQQGKQEGQRLAALRIARSMLNDGFDRDTVLRVTGLAPADLASENH | not soluble
2 | MGSDKIHHHHHHMAVRIVSRQPLTKGWSTDQKYKVQLEDGRLGLLRIAERPAYEAKRLEFQLVENLFGLGLPVAEPLSFWADDLSVYTLYEWVEGQDMNEVATSLSDSVLYDLGCQSGKFLRTLHALPIDQSQRDWNSFYQVKIDNKLAAYQAASHSYPTGPAMIDFVQANRHLLEGRPIAYHHGDFHTGNFLLGPDGKLKILDFDRYDIGDPWEEFNRLIFTADLSPAFARGQVDAYFDGAIPEEFWKLMALYVTVNCLAALSWAEQVDSEQIPMMKLQAQKISEWYEYFNHHLPKWYM | not soluble
3 | MGSDKIHHHHHHMCRILGYLGTPVLLEDLLYAPDSSLLNQTIGAQMLQMLNLAGFGMAAWDPASHDPHLPFRYRTTQVALFDRNLKALAGKLRPGALLAHIRGVPYNSTVQINEQNCHPFRFEGVPLAMAHNGDLAGFREMRFDLAPHVRPEFARQIQGSTDSEWIYALAVSALDDPAGVNEPDAILAAIRRALSILRDARARHGITRSSSTNLMFCDGVNLVAVRFTFDFGRFDAGKLQGTTEYLSMWYTFGRDYGLHDGEWKLTGGAASADSVMVASEPLTRDFATWIEVPEYSALIVRHEGARRRAEIHALEV | not soluble
4 | MGSDKIHHHHHHMCSDHIRLPAQLAAGDVAIRVENLSKRFAVYHTRLERLKHIVAPRRTKGFAEFWALDHVDLTIGRGEACAIIGRNGSGKSTLLQILCGTLRATSGRVAVNGRVAALLELGAGFNADFTGRENVYLNGAVLGLSHTEINERFVEIEAFAEVGDFIDQPVKTYSSGMYVRLAFAIAIHVDPQILIVDEALAVGDARFQAKCLNRIKKMQADGVTLLFVSHDVSAVRTLCDRALWLDCGKVKMLADAFSVTAQYSQFLFEGEDYAVAGNGSGSPQDSSGALQSAASQDISPSAHPEEANQSRAGACGEELMAMHRPINHWGSHVGSIVQAGIYNARGERASTFVAGEPIEVRVIFRPPLNADRKTMSVAFSLKDLRGTDLIVSTTWDQRRLDFEQAGGEACIRFRLRNQLNRGSYLLAVALEDRAGVAPQYYEYIEGAHYFTSLVEDTLFGSFVVDVEQTIEPGHSLYANARVSV | not soluble
5 | MGSDKIHHHHHHMDAHRYCQERAAASGSSFYYSFVFLPTEVRRAITAFYALCRELDDVVDECHERQLAELKLAWWREEIGRFAAGAATHPATRALADTARGASVQPALLLEIVDGMAMDLEHARYADFRALKLYCHRAASVVGEIAAGIFEGARGEHDREVRRYAHELGLAFQLTNIIRDVGEDARRGRIYLPLDEMARFGVAEADVLEGRDTPAFRALMQFQYERAVAHYERALATLPSAARRAQRPGLVMAAIYRSLLDEIRRDGFPVLRARIALTPLRKLWLASRTWLFP | not soluble
6 | MGSDKIHHHHHHMDEVLSFKRGRVPLLISMPHPGTRLTPAVDAGLVEEARALTDTDWHIPRLYDFAEELGASTLAAHYSRYVVDLNRPSDDKPLYSTATTGLYPDTLFDGRPLYREGMAPSAEERMRYLAEVWTPYHRTIAEELARLKAEFGYALLWDAHSIRSHVPHLFDGRLPDFNLGTNAGASCDPALAARLEAVCAAAEGYSHVLNGRFKGGHITRHYGQPEQHVHAVQLELAQCTYMDEQAPFAYRADLAEATRAVIRELLESLLAWGRERYA | not soluble
7 | MGSDKIHHHHHHMDFELDDGWDVYPIYGNTNKAFMGKKNHQRLFLKRNASPFLAALSMEEITPRLIWTKRISSGDTLTAQEWLNGQTLTKQQMRLPEVAHLLARVHNSELLHRMLRKVGGQSVRPQDFIQQYLQDLPDDLRHHPLMARVLDELRGTAPTLPATDYRVCHGDLNHKNWLLSDRQQLYLVDWDSARFADPASDISMLLCEYVPLSDWQQWLSEYGETMTTALRTRVVWYAKINLLLNIKDNYYRNQYHQMNHEIIFLEELSQYEV | not soluble
8 | MGSDKIHHHHHHMDFKQVQQSFIDYIRDPSRPLPADTDVRRMQVYRELFFNNVLGFVSNGFPVLKSLYSEEEWLALVQSFFSQHDCQSPIFIDIAGEFLDFLQQQYQPTANDPVFMLELAHYEWLELAVAVAQASGDESQLSPAQIPMQALCLSKTARVAQYHFEVQHIRQDYRPQQQLDTPVFFCLYQDADCEVCFLQLNPLSAQVLAFLQAQGQASFKEIVDWLTITYPQMAPEIIAQGCTQLLEQLAAKGIVRGRQS | not soluble
9 | MGSDKIHHHHHHMDFYQVIKTRTSTKKFKNTPIAAPKLDNMLNAAMMSPSWKNKTSYSFVIVDDERKKDAIANFIINSDEDAKNSVKDAPMVVAIVGDTTESGHINGKEYYLVDSAIAMEHFVLAAANEGYGTCWIASFDEKRMKDELRIPDKYSVVAITPVGEVGESKAHYEPKDIENHIYRNYWSMPYSEKKHLVMK | not soluble
10 | MGSDKIHHHHHHMDHAIYTAMGGASQSLEKQAITANNLANASTPGFRAQLSALRAVPVNGLTLPTRTLVVASTPGADMTEGVMNYTGRAMDVALPKESWLAVQTANGGEAYTRNGNMEINADGQLTIQGRVVMGDGGPIDIPPQAQISISADGTISALNAGDPPNTIAQLGRLKLVKATGQEVERSDDGLFRLTQQAQQQRGNVLQNDPTVRIMPGVIEGSNVNTVDTMVDMIANARRFEMQMKVISSVDDNAQRANQILAMG | not soluble
11 | MGSDKIHHHHHHMDKQLWEKAVAFHGHECPGLAIGFRACEAVQEKMGLKFSQDEEVVCVTENDACGADAVQVITGCSFGKGNLIYRGTGKMAFSFFSRNTGESMRIVLKPSSSEMDRQERQNYILTAPMDDVFEFKKPGFTLPKQARLFKTVICEVCGEGAPEHKMRLQEGKKVCLDCFEDYSRGY | not soluble
12 | MGSDKIHHHHHHMDLQNKTLLITGIDEFIGLRAAELAITQGMKVRGLQTSTNKDKAQKLGAEVIVGSITDAAIAHKACQGVDIVLHTEQLTEEAGPIKNFREINVNGAVNMAKAAKNAGVKCFVHLSSVMVYGFNYSDRITESGTLSGDNNPYCQTKIEAETELLPLNSPPDFGLIIIRAGDIYGPGSIPWIVRPILMMRQKLFAYANEGQGVINHVYIDNLIDAIFLAVEKDAYGEIFNITDGEETSWKEYFMRLAAMEGASAPMSIPKDEMKLFLKLRNQGQKLFRKKADILPESVDFMTRPYAYSITKAQTILDYKPKVDLEQGLSQTKIWLQNTDIQKLVK | not soluble
13 | MGSDKIHHHHHHMDLYFVKFRVTSKLTSEIVQGYFLGKLNQIPEYDFFVIPGRYARKYSVDLNLGFEDFLEDFKAKKESALKEVLEASAITDEFFDFWLIQSRKQNLRLVGSEFFRLVESGDHEALRVFIADLFREWSEKLEVEVVGVPLDYEDVSLEVVKEHFEELSTDEVFKLFQREDLRNLPEVFPVLDPLNGVTIREIDVEERIDFVILNYGNEEFSEKFKRFLKEKFGTENVASLPGKVLSKEIVKTREGTLYLLKVEFEEGIIGKAIVSPNLKIKRGESRVKISDEEWMEKIGEMLKEGEESKQEKLKLRNSPQPVQKTTSSD | not soluble
14 | MGSDKIHHHHHHMDNSEEKKLEALGAFEISRKMLALAQKNEKSNIFLNAGRGNPNWIQTLARLAFVRLVQFGVTESKLTINNGIMAGYINTDGIRERLFAFLDPDKNDEDKFLIDAVNYCHTELGLNRDKVVAEWVNGAVANNYPVPDRCLVNTEKIINYFLQELSYKDANLAEQTDLFPTEGGTAAIVYAFHSLAENHLLKKGDKIAINEPIFTPYLRIPELKDYELVEVDLHSYEKNDWEIEPNEIEKLKDPSIKALIVVNPTNPTSKEFDTNALNAIKQAVEKNPKLMIISDEVYGAFVPNFKSIYSVVPYNTMLVYSYSKLFGCTGWRLGVIALNEKNVFDDNIAHLDKVELRQLHKRYSSVVLDPDKMKFIDRLCADSRSIGLYHTAGLSTPQQIMEALFSMTHLLTSTNGGSDDPYIDIARKLVSERYDQLHDAMQAPKDETDTNTHYYSLIDIYRLAEKIYGKEFRDYLTNNFEQVDFLLKLAEKNGVVLVDGVGFGAKPGELRVSQANLPTEDYALIGKQVLELLKEYYEEFKQNN | not soluble
15 | MGSDKIHHHHHHMDQSFQVNLNRLRYFHAILEHGSIRAAAERLNTAPSVVSRQLQLLESEIGAPLFERRQHGMIATEAATLLVEYTHACRIGLEQFHESLHGELRGRVEIALTVGYVEDLMDSVITGFLHRHPHVAVELNVRTADGVVDDVLRKRAHIGLTYNPSLPPEIRECLSVEHPTFLAVAPDHPLAKRGEPLELRDAVRYPLALMPAPYYGVGQIVHTVAHAENIPLAPRLVTNSVPAMRRFVRSGNGVAFLTRLLVEDDLERGEIVALRMRNPLFNSPCGKVLVHNERALPRAANEILARIVRDLPSFKS | not soluble
16 | MGSDKIHHHHHHMDQSLFQNGNFQPLASRMRPQTLDEFVGQTHLLGKDKVLSNLIEHDEISSMIFWGPPGVGKTTLARIIARRTKAQFVTFSAVTSGIKEIKQVMKEAEQNRELGQKTIVFVDEIHRFNKAQQDAFLPYVERGSIILIGATTENPSFEVNAALLSRTRVFVLHGLTSAELVDLLQRALKDPRGYGLQKVKIGKKLLAQIADFANGDARIALNTLEMAVTNAETKGGVITVTQADVAQLLTKKALLYDKNGEEHYNLISALHKSMRNSDVDAAIYWLARMLEAGEDPLYVARRLVRFASEDIGMADSRALEITIAVYQACQFIGMPECTVHLTHAVTYLALAPKSNALYTAYEGAKKDATETLAEPVPLQIRNGVTDLMQDLGYGKDYQYAHNTKDKLTTMQTMPDNLIGKTYYHPTTQGSEAKVKERLEQIKAWHAQHPDPDSPKTKKKS | not soluble
17 | MGSDKIHHHHHHMDRIIYTAGSGASQAMQQQSVVNHNLSNVSTPGFRAELDAMRAVPVQGDGRLATRTSVAATTSGTDFSPGYMNATGRRLDVAMQGDAFLAIQDPQGGEAYTRRGDLQVDADGMLTVKGEPVMGEQGPIVVPPDAEFSIGADGSISVLEAGANPDEIAPVGRLKLVTPDLQALTRGDDGWFRLPPGDDAEIAAPQPLDEDARLQSGVLEGSNVSATDAMVAMIDGARRYDMQMKVIESADQNAQRANSLLSVQA | not soluble
18 | MGSDKIHHHHHHMDSSAAFSNPTKLRADLLRGRLDVSVDSSTIAPDSLFGFAERRNPKRAFLFVSRVLGRHIPARPSVMLKSFQDLAHKIPVDLPGPVLVIGMAETAVGLGAGVHRAYSETHSDALYLVSTRHPTGTELFARFEEEHSHASAHLIHLPADPALRDMMLGARSLVLVDDEASTGKTFINLHQALVEAGLSKIERVVTCVLTDWSAGAVSTSMGAVAEQVSLLQGSYSFDEDVSAPLPDMPEVGTVAMGDWPLLTANDWGRMGVLAVADTLAPGLTVNKGERVLVVGTSEFVWRPFLLAERLEKAGADVHFSSTSRSPIALGHAIDHALSFSDNYGLGIPNFLYNVRPGQFDRVLICTETPRQAVPAELIEALNAEVICDE | not soluble
19 | MGSDKIHHHHHHMDSSMPSTPHASAYPIGKPGQVWGEEEKSLWLNKQVIQRSYAEQVLALILDPASISANTADPMETTATQSNAHPEITSALELVHYNTLAYNTLHQGASDYPVYLFKSRHWDETKPNVLITGGVHGYETSGVQGAIRFLRTKAQHYCQHANLIIVPCLSPWGYETINRWNPHAIDPNRSFVHDTAPHDTAMTQAKAQASKVQLSDVQEAHALMAALGELAVNFSLHIDLHETTDSDNAEFRPALAARDGTSYDNWDIPDGFYLVGDTLKPQAEFQKAVINAVNAITHIAPAGEHARLIGVPIAQFGVINYPTKALGLCAGMTDATYCTTTEVYPDSPLVDDENCILAQVAAITGALDYVIKNR | not soluble
